{
  "source": "patent US20160280750A1",
  "about": "(NEWSOUTH INNOVATIONS, published 2016)",
  "data": [
    {"target": "T1, HLA-B*2705 (human, UniProt P01889 25-302 at identity 0.93))", "T1 construct": "MHC class I molecule assembled with candidate peptides in the REVEAL assay (ProImmune)", "T1 MHC heavy": "not shown", "assay": "REVEAL MHC-peptide binding assay, incorporation into HLA-B*2705", "values": [
      {"binder": "FKRFNALQY", "note": "[Peptide I.D. 17 FKRFNALQY]", "% Positive Control (REVEAL binding score)": "0.15 % of positive control"},
      {"binder": "DLQDFFSSL", "note": "[Peptide I.D. 33 DLQDFFSSL]", "% Positive Control (REVEAL binding score)": "0.35 % of positive control"},
      {"binder": "DEYFKRFNA", "note": "[Peptide I.D. 14 DEYFKRFNA]", "% Positive Control (REVEAL binding score)": "0.06 % of positive control"},
      {"binder": "EYFKRFNAL", "note": "[Peptide I.D. 15 EYFKRFNAL]", "% Positive Control (REVEAL binding score)": "0.48 % of positive control"},
      {"binder": "HTRRQLEDI", "note": "[Peptide I.D. 8 HTRRQLEDI]", "% Positive Control (REVEAL binding score)": "0.04 % of positive control"},
      {"binder": "RQLEDIRLD", "note": "[Peptide I.D. 11 RQLEDIRLD]", "% Positive Control (REVEAL binding score)": "0.5 % of positive control"},
      {"binder": "QLEDIRLDG (Opticin nonamer)", "note": "[Peptide I.D. 12 QLEDIRLDG]", "% Positive Control (REVEAL binding score)": "0 % of positive control"},
      {"binder": "KHTRRQLED", "note": "[Peptide I.D. 7 KHTRRQLED]", "% Positive Control (REVEAL binding score)": "0.04 % of positive control"},
      {"binder": "HKHTRRQLE", "note": "[Peptide I.D. 6 HKHTRRQLE]", "% Positive Control (REVEAL binding score)": "0 % of positive control"},
      {"binder": "NALQYLRLS", "note": "[Peptide I.D. 21 NALQYLRLS]", "% Positive Control (REVEAL binding score)": "0.11 % of positive control"},
      {"binder": "RFNALQYLR", "note": "[Peptide I.D. 19 RFNALQYLR]", "% Positive Control (REVEAL binding score)": "1.2 % of positive control"},
      {"binder": "FNALQYLRL", "note": "[Peptide I.D. 20 FNALQYLRL]", "% Positive Control (REVEAL binding score)": "1.81 % of positive control"},
      {"binder": "RRRWRRLTV", "note": "[Peptide I.D. 36 RRRWRRLTV]", "% Positive Control (REVEAL binding score)": "44 % of positive control"},
      {"binder": "RSIDLQDFF", "note": "[Peptide I.D. 30 RSIDLQDFF]", "% Positive Control (REVEAL binding score)": "0.08 % of positive control"},
      {"binder": "QYLRLSHNE", "note": "[Peptide I.D. 24 QYLRLSHNE]", "% Positive Control (REVEAL binding score)": "0.5 % of positive control"},
      {"binder": "SIDLQDFFS", "note": "[Peptide I.D. 31 SIDLQDFFS]", "% Positive Control (REVEAL binding score)": "0.26 % of positive control"},
      {"binder": "LQDFFSSLI", "note": "[Peptide I.D. 34 LQDFFSSLI]", "% Positive Control (REVEAL binding score)": "0.11 % of positive control"},
      {"binder": "IDLQDFFSS", "note": "[Peptide I.D. 32 IDLQDFFSS]", "% Positive Control (REVEAL binding score)": "0.13 % of positive control"},
      {"binder": "TRRQLEDIR", "note": "[Peptide I.D. 9 TRRQLEDIR]", "% Positive Control (REVEAL binding score)": "0.02 % of positive control"},
      {"binder": "LRSIDLQDF", "note": "[Peptide I.D. 29 LRSIDLQDF]", "% Positive Control (REVEAL binding score)": "0.08 % of positive control"},
      {"binder": "YFKRFNALQ", "note": "[Peptide I.D. 16 YFKRFNALQ]", "% Positive Control (REVEAL binding score)": "0.47 % of positive control"},
      {"binder": "NLRSIDLQD", "note": "[Peptide I.D. 28 NLRSIDLQD]", "% Positive Control (REVEAL binding score)": "0.17 % of positive control"},
      {"binder": "LEDIRLDGN", "note": "[Peptide I.D. 13 LEDIRLDGN]", "% Positive Control (REVEAL binding score)": "2.17 % of positive control"},
      {"binder": "ARGQPGVMG", "note": "[Peptide I.D. 37 ARGQPGVMG]", "% Positive Control (REVEAL binding score)": "0 % of positive control"},
      {"binder": "LNLRSIDLQ", "note": "[Peptide I.D. 27 LNLRSIDLQ]", "% Positive Control (REVEAL binding score)": "0.11 % of positive control"},
      {"binder": "ALQYLRLSH", "note": "[Peptide I.D. 22 ALQYLRLSH]", "% Positive Control (REVEAL binding score)": "0.13 % of positive control"}
    ]},
    {"target": "T2, HLA-B*2705 (human), P01889", "T2 chain": "not shown", "assay": "REVEAL MHC-peptide binding assay, incorporation into HLA-B*2705", "values": [
      {"binder": "DPCTTWCDA (modifications not checked)", "note": "[Peptide I.D. 35 …]", "% Positive Control (REVEAL binding score) (% of positive control)": 2.18}
    ]}
  ]
}
